Assays:
[1] = target: GHR constructs with one of seven amino acids of the UbE motif (indicated as underlined in …) mutated to alanine; experiment: pull-down of 35S-labelled β-TrCP on GH-GHR beads, background (GHR 1-286) subtracted
GHR and β-TrCP = experiment: Inhibition of the interaction between GHR and β-TrCP; type: binding

Sequence of in vitro-translated- and 35S-labelled-TrCP2 (Q9UKB1 whole entry): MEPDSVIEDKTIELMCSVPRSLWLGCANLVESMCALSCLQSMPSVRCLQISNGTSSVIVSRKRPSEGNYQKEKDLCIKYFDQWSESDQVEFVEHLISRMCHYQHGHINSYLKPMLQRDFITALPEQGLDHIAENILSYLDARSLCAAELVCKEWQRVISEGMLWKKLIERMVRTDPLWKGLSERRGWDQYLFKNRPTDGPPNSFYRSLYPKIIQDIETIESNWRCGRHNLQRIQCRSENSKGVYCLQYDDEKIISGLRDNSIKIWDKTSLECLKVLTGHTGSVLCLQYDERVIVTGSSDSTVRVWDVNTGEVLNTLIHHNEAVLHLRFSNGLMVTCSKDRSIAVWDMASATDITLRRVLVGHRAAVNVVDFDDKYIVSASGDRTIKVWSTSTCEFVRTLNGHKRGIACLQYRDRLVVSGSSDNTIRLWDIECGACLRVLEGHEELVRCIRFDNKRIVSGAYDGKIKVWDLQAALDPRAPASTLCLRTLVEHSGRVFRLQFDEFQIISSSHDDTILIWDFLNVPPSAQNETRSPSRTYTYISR

| inhibition of binding as compared to wtGHR [1] | inhibition of F-box protein (β-TrCP) interaction with ubiquitin/proteasome binding site of GHR (GHR and β-TrCP) | Molecule |
| --- | --- | --- |
| > 60% | – | in vitro-translated- and 35S-labelled-TrCP2 |
| – | capable of providing inhibition | KQQRIKMLILPPVPVPKIKGIDPDLLKEGKLEEVNTILAIHDSYKPEFHSDDS WVEFIELD (61 amino acid peptide of GHR, residues 270-331) KQQRIKMLILPPVPVPKIKGIDPDLLKEGKLEEVNTILAIHDSYKPEFHSDDSWVEFIELD |
